B1: COVIC-304 (antibody, V domains shown)
VH: QVQLQQWGAGLLKPSETLSLKCAVYGGSFSGYYWGWIRQSTGKGLEWIGEINRSGSTNYNPSLKSRVTISVDTSKNQFSLKLSSVTAADTAVYYCARGGARYYYGSGSYRSTPRPYYFDYWGQGTLVTVSS
VL: SYELTQPPSVSVAPGETARITCGGDNIGRRHVHWYQQKPGQAPVLVIYDDSDRPSGIPDRFSGSNSGNTATLTIGRVEAGDEADYYCQVWGSSNDPHVFGTGTKLTVLG
B2: COVIC-124 (antibody)
chain: QVQLQESGGGLVQAGGSLRLSCAASGRTFSEYAMGWFRQAPGKEREFVATISWSGGSTYYTDSVKGRFTISRDNAKNTVYLQMNSLKPDDTAVYYCAAAGLGTVVSEWDYDYDYWGQGTQVTVSSGGSGGSQVQLQESGGGLVQAGGSLRLSCAASGRTFSEYAMGWFRQAPGKEREFVATISWSGGSTYYTDSVKGRFTISRDNAKNTVYLQMNSLKPDDTAVYYCAAAGLGTVVSEWDYDYDYWGQGTQVTVSSGGGGSGGGGSEPKSCDKTHTCPPCPAPELLGGKKKPLDGEYFTLQIRGRERFEMFRELNEALELKDAQAGKEPGGGGGSGGGGSQVQLQESGGGLVQAGGSLRLSCAASGRTFSEYAMGWFRQAPGKEREFVATISWSGGSTYYTDSVKGRFTISRDNAKNTVYLQMNSLKPDDTAVYYCAAAGLGTVVSEWDYDYDYWGQGTQVTVSSGGSGGSQVQLQESGGGLVQAGGSLRLSCAASGRTFSEYAMGWFRQAPGKEREFVATISWSGGSTYYTDSVKGRFTISRDNAKNTVYLQMNSLKPDDTAVYYCAAAGLGTVVSEWDYDYDYWGQGTQVTVSS
B3: COVIC-313 (antibody)
chain 1: QVQLVQSGAEVKKPGSSVKVSCKASGGTFGISWVRQAPGQGLEWMGRIIPILGTANHAQKFQGRVTITADKSTGTVYMELSSLRSEDTAVYYCARDGDSGSYYETLGFDYWGQGTLVTVSSASTKGPSVFPLAPEVQLVESGGGLVKPGGSLRLSCAASGFTFSPYSMNWVRQAPGKGLEWVSSISVSNIYTYYADSVKGRFTISRDNAKNSLYLQMNSLRAEDTAIYYCARDLKKGGIQYDAFDIWGQGTVVTVSS
chain 2: QSALTQPPSASGSPGQSVTISCTGTSSDVGGYNYVSWYQQHPGKAPKLMIYEVNKRPSGVPDRFSGSKSGNTASLTVSGLQAEDEADYYCSSYAGSNNLVFGGGTKLTVLQPKAAPSVTLFPPEIVLTQSPATLSLSPGERATLSCRASQSVNDYLAWYQQKPGQAPRLLIYDASNRATGFPARFSGSGSGTDFTLTISSLEPEDFAVYYCQQRSNWPPTFGQGTRLEIK
B4: COVIC-97 (antibody, V domains shown)
VH: EVQLVESGPEVKKPGTSVKVPCKASGFTFTSSAVQWVRQARGQRLEWIGWIVVGSGNTNYAQKFQERVTITRDMSTSTAYMELSSLRSEDTAVYYCAAPSCSGGRCYDGFDIWGQGTMVTVSS
VL: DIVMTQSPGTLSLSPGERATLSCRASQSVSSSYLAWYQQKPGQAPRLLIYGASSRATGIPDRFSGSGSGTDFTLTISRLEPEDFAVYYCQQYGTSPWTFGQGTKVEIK
B5: COVIC-262 (antibody, V domains shown)
VH: QVQLVQSGAEVKKPGSSVKVSCKASGGTSSSYAISWVRQAPGQGLEWIGGIIPIFDTTKYAQKFQGRVTITADESTNTAYMEVSSLRSEDTAVYYCAKVADRVGASTGELDYWGQGTLVTVSS
VL: EVVLTQSPATLSLSPGERGTLSCRASQSISNYLAWYQQKPGQAPRLLIYNASNRATGVPARFSGSGSGTDFTLTISSLEPEDFAVYYCQQRSNWPPWTFGQGTKVEIKR
B6: COVIC-294 (antibody, V domains shown)
VH: EVQLVESGGGLVQPGGSLRLSCAASGITVSSNYMNWVRQAPGKGLEWVSVIYSGGSTFYADSVKGRFTIARDNSKNTLYLQMNSLRAEDTAVYYCAREGLLVGPTGRGLGMDVWGQGTTVTVSS
VL: DIQMTQSPSSLSASVGDRVTITCQASQDINNYLNWYQQKPGKAPKLLIYDASNLQTGVPSRFSGSGSGTDFTFTISSLQPEDIATYYCQQYADLPYTFGQGTKLQIK
B7: COVIC-136 (antibody, V domains shown)
VH: EVQLLESGGGLIQPGGSLRLSCAASGFTVSSNYMSWVRQAPGKGLEWVSVIYSGGSTYYADSVKGRFTISRDNSKNTLYLQMNSLRAEDTAVYYCARDHVRPGMNIWGQGTMVTVSS
VL: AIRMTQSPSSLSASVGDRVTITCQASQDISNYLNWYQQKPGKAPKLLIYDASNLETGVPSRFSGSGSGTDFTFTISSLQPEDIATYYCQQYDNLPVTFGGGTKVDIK
B8: COVIC-139 (antibody, V domains shown)
VH: EVQLVESGGGVVQPGRSLRLSCAASGFTFSSYGMHWVRQAPGKGLEWVAVISYDGSNKYYADSVKGRFTISRDNSKNTLYLQMNSLRAEDTAVYYCANGFGEYYYYAMDVWGQGTTVTVSS
VL: NFMLTQPHSVSESPGKTVTISCTGSSGSIASNYVQWYQRRPGSAPTTVIYEDNQRPSGVPDRFSASIDSSSNSASLTISGLKTEDEADYYCQSYDSSNWVFGGGTKLTVL
B9: COVIC-369 (antibody, V domains shown)
VH: EVRLVESGGGLIQPGGSLTLSCAASGVIVSRNYMNWVRQAPGKGLEWVSVIYSGGSTFYADSVKGRFTISRDNSKNTLYLQMNSLRAEDTAVYYCARWGPNYYGSGSDHYNSYGMDVWGQGTTVTVSS
VL: EIVLTQSPGTLSLSPGESATLSCRASQGVSSSSLAWYQQRPGQAPRLLMYGASSRATGIPDRFSGSGSGTDFTLTISRLEPEDFAVYYCQQSGSSPQYTFGQGTKLEIKR
B10: COVIC-393 (antibody, V domains shown)
VH: EVQLVQSGGGLVQPGGSLKLSCAASGFTFSGSAMHWVRQASGKGLEWVGHIRSKANSYATAYAASVKGRFTISRDDSKNTAYLQMNSLNTEDTAVYYCTREDIVGVPVAKDWFDPWGQGTLVTVSS
VL: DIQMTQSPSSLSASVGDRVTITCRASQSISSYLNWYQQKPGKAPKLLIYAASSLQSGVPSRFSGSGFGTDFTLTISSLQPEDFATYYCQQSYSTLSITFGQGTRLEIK
B11: COVIC-59 (antibody, V domains shown)
VH: QVQLQESGGGLVQAGGSLRLSCAASGRTFSEYAMGWFRQAPGKEREFVATISWSGGSTYYTDSVKGRFTISRDNAKNTVYLQMNSLKPDDTAVYYCAAAGLGTVVSEWDYDYDYWGQGTQVTVSS
B12: COVIC-55 (antibody, V domains shown)
VH: QVQLQESGGGLVQAGGSLRLSCAASGRTFSEYAMGWFRQAPGKEREFVATISWSGGSTYYTDSVKGRFTISRDNAKNTVYLQMNSLKPDDTAVYYCAAAGLGTVVSEWDYDYDYWGQGTQVTVSS
B13: COVIC-141 (antibody, V domains shown)
VH: QVQLQESGPGLVKPSQTLSLTCTVSGGSISSGGYYWSWIRQHPGKGLEWIGYIYYSGNTYYNPSLKSRVTMSVDTSKNQFSLKLTSVTAADTAVYYCASTARPLTNAEYFQHWGQGTLVTVSS
VL: DIQLTQSPGTLSLSPGERATLSCRASQSVSSSYLAWYQQKPGQAPRLLIYGTSSRATGIPDRFSGSGSGTDFTLTISRLEPEDFAVYYCQQYRTFGQGTKVEIK
B14: COVIC-183 (antibody, V domains shown)
VH: EVHLVESGGGLVQPGGSLRLSCAASGFTFSDHYMDWVRQAPGKGLEWVGRTRNKANSYTTEYAASVKGRFTISRDDAKNSLYLQMNSLKTEDTAVYYCARVHRWAYCINGVCFGAYSDYWGQGTLVTVSS
VL: not shown
B15: COVIC-79 (antibody, V domains shown)
VH: EVQLVESGGGLIQPGGSLRLSCAASGFIVSRNYMIWVRQAPGKGLEWVSVIYSGGSTFYADSVKGRFTISRDNSKNTLYLQMNSLRAEDTAVYYCARDLEVAGAIDYWGQGTLVTVSS
VL: EIVLTQSPGTLSLSPGERATLSCRASQSISSSYLAWYQQKPGQAPRLLIYGATSRATGTPDRFSGSGSGTDFTLTINRLEPEDFAVYYCQQYGSSPGYTFGQGTKLEIK
B16: COVIC-293 (antibody, V domains shown)
VH: QVTLRESGPALVKPTQTLTLTCTFSGFSLSTSGMCVSWIRQPPGKALQWLARIDWDDDKYYSTSLKTRLTISKDTSKNQVVLTVTNVDPVDTGTYYCARVQVAAAGSPYDYWGQGTLVTVSS
VL: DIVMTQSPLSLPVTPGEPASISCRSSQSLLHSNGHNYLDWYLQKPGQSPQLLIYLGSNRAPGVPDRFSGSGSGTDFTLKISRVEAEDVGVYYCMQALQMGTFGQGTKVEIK
B17: COVIC-252 (antibody, V domains shown)
VH: EVQLLESGGGLIQPGGSLRLSCAASGFIVSSNYMSWVRQAPGKGLEWVSVIYSGGSTFYADSVKGRFTISRDNSNNTLYLQMNSLRAEDTAVYYCARDYGDFYFDYWGQGTLVTVSS
VL: DIQMTQSPSTLSVSPGERATLSCRASQSVSSNLAWYQQKPGQAPRLLIYGASTRATGIPVRFSGSGSGTESTLTISSLQSEDFAVYYCQQYNKWPRTFGQGTKVEIK
B18: COVIC-335 (antibody, V domains shown)
VH: QVQLVESGGGVVQPGRSLRLSCAASGFTFSRYGMHWVRQAPGKGLEWVALISSGGSNKYYADSVKGRFTISRDNSKNTLYLEMNSLRAEDTAVYYCAKDAIYDYIWGAYRENWFDPWGQGTLVTVSS
VL: DIQMTQSPSSLSASVGDRVTITCRASQSISNYLNWYQQKPGKAPNLLIYAASSLQSGVPSRFSGSGSGTDFTLTISSLQPEDFATYYCQQTSSPPLTFGQGTKVEIK
B19: COVIC-366 (antibody, V domains shown)
VH: EVQLVESGGGLVQPGRSLRLSCAASGFSLDDYGMHWVRQAPGKGLEWVSGISWNSGDRGYADSVKGRFTISRDNAKNSLYLQMNSLRAEDTALYYCAKGSGAHYDIMTGARLDYWGQGTLVTVSS
VL: DIQMTQSPSSLSASVGDRVTITCRASQSITNYLNWYQQKPGKVPKLLIYAASILQSGVPSRFSGSGSGTDFTLTISSLQPEDFATYYCQQSYSTPWTFGQGTKVEIKR
B20: COVIC-168 (antibody, V domains shown)
VH: EVQLVESGGGLIQPGGSLRLSCAASGVTVSSNYMNWVRQAPGKGLEGVSVIYSGGTTYYADSVKGRFTISRDNSKNTLYLQMNSLRAEDTAVYYCARDTVVYGMDVWGQGTTVTVSS
VL: DIQLTQSPSFLSASVGDRVTITCWASQGISSYLAWYQQKPGKAPKLLIYTASTLQSGVPSRFSGSGSGTEFTLTISSLQPEDFATYYCQQLNSYPLTFGGGTKVEIKR
B21: COVIC-151 (antibody, V domains shown)
VH: QVQLQESGPGLVKPSQTLSLTCTVSGGSISSYGYYWNWIRQHPGKGLEWIGYIYYSGSTYYNPSLKSRVTISVDTSKNQLSLRLNSVSAADTAVYYCARDFGGNSNYFDYWGQGTLVTVSS
VL: AIQLTQSPSSLSASVGDRVTITCRTSQGISSALAWYQQKPGKAPKLLIYDASSLESGVPSRFSGSGSGTDFTLTISSLQPEDFATYYCQQFNSYPLTFGGGTKVEIKR
B22: COVIC-134 (antibody, V domains shown)
VH: EVQLVESGGGVVQPGRSLRLSCAASGFTFSSYGMHWVRQAPGKGLEWVAVIWYDGSNKYYADSVKGRFTISRDNSKNTLYLQMNSLRAEDTAVYYCAKGPDILTGYYNYYYYGMDVWGQGTMVTVSS
VL: QSVLTQPPSVSGAPGQRVTISCTGSSSNIGAGYDVHWYQQLPGTAPKLLIYGNSNRPSGVPDRFSGSKSGTSASLAITGLQAEDEADYYCQSYDSSLSGFYVVFGGGTKLTVL

This experiment concerns the target SARS-CoV-2 spike RBD (Wuhan-Hu-1) (Severe acute respiratory syndrome …, UniProt P0DTC2). In words: SPR. (SPR reads the build-up and loss of mass on a sensor chip optically.)
One may read the Kd as a measure of binding affinity in units of concentration. High values mean weaker binding, low ones tighter binding. B1 came in with a Kd of 197 nM.
The same measure for B2: 167 nM.
B3 registered a dissociation constant Kd of 0.155 nM.
To B4 belongs 4.96 nM.
B5 registered a Kd of 4.67 nM. The Kd values of the last two molecules are within 1.5-fold of each other.
The molecule B6 displayed a Kd of 0.0593 nM.
For B7, the affinity, expressed as Kd, was 9.86 nM.
Molecule B8 showed a Kd of 44.6 nM.
To B9 belongs 0.209 nM; to B10, 0.233 nM.
In turn, B11 gave a Kd of 201 nM. This Kd is about 860-fold higher than that of the molecule before.
B12 returned a Kd of 115 nM.
To B13 belongs 107 nM; to B14, 6.97 nM.
The same measure for B15: 0.745 nM; for B16: 0.429 nM.
The same measure for B17: 15.1 nM.
The molecule B18 returned a Kd of 9 nM.
To B19 belongs 0.0703 nM; to B20, 24.1 nM.
To B21 belongs 6.31 nM.
To B22 belongs 90 nM.
